One block for each binder: values may come before it.
Legend:
Assay in all cases: holdup assay
Parameters in all cases: key: below the threshold = too weak to quantify, mostly under pKd 3.1 to 4
TJP2_1, Q9UDY2 = target: TJP2_1, Q9UDY2
APBA1_2, Q02410 = target: T1, APBA1_2, Q02410
T1 sequence (Q02410 742-832, limits assumed, looked up): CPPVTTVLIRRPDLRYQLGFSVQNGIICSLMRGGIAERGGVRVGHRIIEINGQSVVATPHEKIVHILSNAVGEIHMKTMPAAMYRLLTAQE

Inadl_3, Q8NI35 = target: Inadl_3, Q8NI35
SCRIB_3, Q14160 = target: SCRIB_3, Q14160
HTRA4, P83105 = target: T2, HTRA4, P83105
T2 sequence (P83105 378-476, limits assumed, looked up): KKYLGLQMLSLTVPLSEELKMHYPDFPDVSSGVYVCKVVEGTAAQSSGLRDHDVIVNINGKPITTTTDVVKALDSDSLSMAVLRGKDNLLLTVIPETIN

Inadl_1, Q8NI35 = target: Inadl_1, Q8NI35
GIPC2, Q8TF65 = target: GIPC2, Q8TF65
NOS1, P29475 = target: NOS1, P29475
TJP3_3, O95049 = target: T3, TJP3_3, O95049
T3 sequence (O95049 375-456, limits assumed, looked up): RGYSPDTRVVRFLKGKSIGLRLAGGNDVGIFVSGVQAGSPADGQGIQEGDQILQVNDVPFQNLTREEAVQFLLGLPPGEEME

MAGI2_4, Q86UL8 = target: MAGI2_4, Q86UL8
HTRA3, P83110 = target: T4, HTRA3, P83110
T4 sequence (P83110 354-453, limits assumed, looked up): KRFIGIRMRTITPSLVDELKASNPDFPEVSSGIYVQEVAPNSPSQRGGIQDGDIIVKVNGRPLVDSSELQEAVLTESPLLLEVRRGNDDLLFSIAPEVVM

TIAM2, Q8IVF5 = target: T5, TIAM2, Q8IVF5
T5 sequence (Q8IVF5 885-986, limits assumed, looked up): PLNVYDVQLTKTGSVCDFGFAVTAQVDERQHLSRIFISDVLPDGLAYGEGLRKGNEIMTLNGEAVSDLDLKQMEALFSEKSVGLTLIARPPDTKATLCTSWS

APBA1_1, Q02410 = target: T6, APBA1_1, Q02410
T6 sequence (Q02410 651-752, limits assumed, looked up): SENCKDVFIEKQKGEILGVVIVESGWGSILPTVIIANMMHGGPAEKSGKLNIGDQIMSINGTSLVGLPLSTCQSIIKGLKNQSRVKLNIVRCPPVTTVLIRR

GRIP1_4, Q9Y3R0 = target: T7, GRIP1_4, Q9Y3R0
T7 sequence (Q9Y3R0 467-571, limits assumed, looked up): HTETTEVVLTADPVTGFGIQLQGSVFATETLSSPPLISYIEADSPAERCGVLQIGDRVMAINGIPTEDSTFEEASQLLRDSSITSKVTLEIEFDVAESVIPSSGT

GRIP1_5, Q9Y3R0 = target: T8, GRIP1_5, Q9Y3R0
T8 sequence (Q9Y3R0 568-668, limits assumed, looked up): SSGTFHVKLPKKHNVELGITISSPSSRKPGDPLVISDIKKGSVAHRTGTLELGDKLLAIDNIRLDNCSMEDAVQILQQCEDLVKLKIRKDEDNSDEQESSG

DLG4_3, P78352 = target: DLG4_3, P78352
Inadl_4, Q8NI35 = target: Inadl_4, Q8NI35
MPDZ_10, O75970 = target: T9, MPDZ_10, O75970
T9 sequence (O75970 1624-1722, limits assumed, looked up): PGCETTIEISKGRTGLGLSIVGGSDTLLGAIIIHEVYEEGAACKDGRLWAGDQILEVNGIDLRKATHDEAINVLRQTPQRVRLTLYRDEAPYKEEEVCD

SCRIB_2, Q14160 = target: SCRIB_2, Q14160
HTRA1, Q92743 = target: HTRA1, Q92743
NHERF4_1, Q86UT5-2 = target: NHERF4_1, Q86UT5-2
DFNB31_2, Q9P202 = target: T10, DFNB31_2, Q9P202
T10 sequence (Q9P202 274-371, limits assumed, looked up): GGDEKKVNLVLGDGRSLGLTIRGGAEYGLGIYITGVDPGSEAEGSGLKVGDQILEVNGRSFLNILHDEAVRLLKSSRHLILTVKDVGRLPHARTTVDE

PDZRN3_1, Q9UPQ7 = target: T11, PDZRN3_1, Q9UPQ7
T11 sequence (Q9UPQ7 244-349, limits assumed, looked up): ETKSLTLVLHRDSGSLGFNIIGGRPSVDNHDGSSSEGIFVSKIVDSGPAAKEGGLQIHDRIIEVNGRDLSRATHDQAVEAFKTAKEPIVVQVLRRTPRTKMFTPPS

FRMPD1, Q5SYB0 = target: T12, FRMPD1, Q5SYB0
T12 sequence (Q5SYB0 52-145, limits assumed, looked up): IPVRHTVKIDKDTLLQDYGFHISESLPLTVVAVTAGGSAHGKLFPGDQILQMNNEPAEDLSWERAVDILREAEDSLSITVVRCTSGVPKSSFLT

Inadl_2, Q8NI35 = target: Inadl_2, Q8NI35
GOPC, Q9HD26 = target: GOPC, Q9HD26
[1] = plain residues with an end cap or a label only (N-terminal biotin on a linker: ttds)
[2] = plain residues with an end cap or a label only (N-terminal biotin on a linker: ahx)

Sequence of NHERF4_1, Q86UT5-2 (Q86UT5 other isoform, or with tags, fused parts or gaps): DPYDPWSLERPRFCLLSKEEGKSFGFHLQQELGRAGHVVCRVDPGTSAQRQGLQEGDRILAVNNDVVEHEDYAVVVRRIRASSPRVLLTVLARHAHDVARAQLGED
Sequence of Inadl_3, Q8NI35 (Q8NI35 359-469): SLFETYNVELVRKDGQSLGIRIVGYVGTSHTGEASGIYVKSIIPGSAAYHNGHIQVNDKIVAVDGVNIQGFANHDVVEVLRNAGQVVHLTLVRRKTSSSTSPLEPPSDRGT
Sequence of TJP2_1, Q9UDY2 (Q9UDY2 24-128): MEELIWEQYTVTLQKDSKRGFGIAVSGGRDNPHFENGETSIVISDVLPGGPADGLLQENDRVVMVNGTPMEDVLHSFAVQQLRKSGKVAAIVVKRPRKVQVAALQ
Sequence of DLG4_3, P78352 (P78352 306-403): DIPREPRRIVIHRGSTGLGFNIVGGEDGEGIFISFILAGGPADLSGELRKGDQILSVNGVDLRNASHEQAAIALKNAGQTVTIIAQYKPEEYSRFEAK
Sequence of Inadl_1, Q8NI35 (Q8NI35 113-229): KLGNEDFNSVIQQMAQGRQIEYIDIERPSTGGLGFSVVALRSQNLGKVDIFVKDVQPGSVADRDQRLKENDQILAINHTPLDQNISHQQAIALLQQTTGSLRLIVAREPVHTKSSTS
Sequence of HTRA1, Q92743 (Q92743 360-477): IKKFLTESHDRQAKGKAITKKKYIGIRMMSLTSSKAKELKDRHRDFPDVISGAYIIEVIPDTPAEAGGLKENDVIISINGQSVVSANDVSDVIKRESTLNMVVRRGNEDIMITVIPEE
Sequence of SCRIB_3, Q14160 (Q14160 999-1103): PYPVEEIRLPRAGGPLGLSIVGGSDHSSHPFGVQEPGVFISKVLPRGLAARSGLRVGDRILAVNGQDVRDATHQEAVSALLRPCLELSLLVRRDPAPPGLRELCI
Sequence of NOS1, P29475 (P29475 9-101): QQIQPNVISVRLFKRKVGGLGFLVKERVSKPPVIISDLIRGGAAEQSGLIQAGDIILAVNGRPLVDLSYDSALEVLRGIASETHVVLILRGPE
Sequence of SCRIB_2, Q14160 (Q14160 857-960): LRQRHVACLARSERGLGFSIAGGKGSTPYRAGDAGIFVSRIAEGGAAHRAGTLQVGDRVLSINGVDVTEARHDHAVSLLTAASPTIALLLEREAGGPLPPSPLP
Sequence of Inadl_2, Q8NI35 (Q8NI35 238-335): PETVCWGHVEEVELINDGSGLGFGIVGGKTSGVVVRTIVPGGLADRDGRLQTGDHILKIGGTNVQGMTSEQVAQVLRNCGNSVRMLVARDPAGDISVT
Sequence of MAGI2_4, Q86UL8 (Q86UL8 772-865): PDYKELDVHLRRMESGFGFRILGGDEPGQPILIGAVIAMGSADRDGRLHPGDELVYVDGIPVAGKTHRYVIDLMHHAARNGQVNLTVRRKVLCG
Sequence of Inadl_4, Q8NI35 (Q8NI35 547-651): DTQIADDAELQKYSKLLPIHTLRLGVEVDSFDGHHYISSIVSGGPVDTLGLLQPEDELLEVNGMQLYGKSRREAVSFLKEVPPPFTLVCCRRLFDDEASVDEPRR
Sequence of GIPC2, Q8TF65 (Q8TF65 112-203): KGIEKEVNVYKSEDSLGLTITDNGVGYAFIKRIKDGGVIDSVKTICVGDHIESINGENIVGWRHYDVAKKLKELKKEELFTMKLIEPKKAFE

pKd (TJP2_1, Q9UDY2; [1]): below the threshold | pKd (APBA1_2, Q02410; [1]): below the threshold | pKd (Inadl_3, Q8NI35; [1]): 3.75 | pKd (SCRIB_3, Q14160; [1]): below the threshold | pKd (HTRA4, P83105; [1]): below the threshold | pKd (Inadl_1, Q8NI35; [1]): below the threshold | pKd (GIPC2, Q8TF65; [1]): below the threshold | pKd (NOS1, P29475; [1]): below the threshold | pKd (TJP3_3, O95049; [1]): 3.7 | pKd (MAGI2_4, Q86UL8; [1]): 3.49 | pKd (HTRA3, P83110; [1]): below the threshold | pKd (TIAM2, Q8IVF5; [1]): below the threshold | pKd (APBA1_1, Q02410; [1]): below the threshold | pKd (GRIP1_4, Q9Y3R0; [1]): below the threshold | pKd (GRIP1_5, Q9Y3R0; [1]): 3.55 | pKd (DLG4_3, P78352; [1]): below the threshold | pKd (Inadl_4, Q8NI35; [1]): below the threshold | pKd (MPDZ_10, O75970; [1]): 3.51 | pKd (SCRIB_2, Q14160; [1]): 3.47 | pKd (HTRA1, Q92743; [1]): 3.61 | pKd (NHERF4_1, Q86UT5-2; [1]): below the threshold | pKd (DFNB31_2, Q9P202; [1]): below the threshold | pKd (PDZRN3_1, Q9UPQ7; [1]): below the threshold | pKd (FRMPD1, Q5SYB0; [1]): below the threshold | pKd (Inadl_2, Q8NI35; [1]): below the threshold | pKd (GOPC, Q9HD26; [1]): below the threshold
Binder: CNTVTVETVV [MAS1, P04201]

pKd (TJP2_1, Q9UDY2; [1]): below the threshold | pKd (APBA1_2, Q02410; [1]): 4.08 | pKd (Inadl_3, Q8NI35; [1]): below the threshold | pKd (SCRIB_3, Q14160; [1]): 5.6 | pKd (HTRA4, P83105; [1]): below the threshold | pKd (Inadl_1, Q8NI35; [1]): 4.12 | pKd (GIPC2, Q8TF65; [1]): below the threshold | pKd (NOS1, P29475; [1]): 4.41 | pKd (TJP3_3, O95049; [1]): below the threshold | pKd (MAGI2_4, Q86UL8; [1]): below the threshold | pKd (HTRA3, P83110; [1]): below the threshold | pKd (TIAM2, Q8IVF5; [1]): below the threshold | pKd (APBA1_1, Q02410; [1]): below the threshold | pKd (GRIP1_4, Q9Y3R0; [1]): below the threshold | pKd (GRIP1_5, Q9Y3R0; [1]): below the threshold | pKd (DLG4_3, P78352; [1]): 4.18 | pKd (Inadl_4, Q8NI35; [1]): below the threshold | pKd (MPDZ_10, O75970; [1]): below the threshold | pKd (SCRIB_2, Q14160; [1]): 4.24 | pKd (HTRA1, Q92743; [1]): below the threshold | pKd (NHERF4_1, Q86UT5-2; [1]): 4.04 | pKd (DFNB31_2, Q9P202; [1]): 4.36 | pKd (PDZRN3_1, Q9UPQ7; [1]): 5.71 | pKd (FRMPD1, Q5SYB0; [1]): below the threshold | pKd (Inadl_2, Q8NI35; [1]): below the threshold | pKd (GOPC, Q9HD26; [1]): 4.32
Binder: NYWPGKETQL [SLCO1C1, Q9NYB5]

pKd (TJP2_1, Q9UDY2; [2]): below the threshold | pKd (APBA1_2, Q02410; [2]): 3.62 | pKd (Inadl_3, Q8NI35; [2]): below the threshold | pKd (SCRIB_3, Q14160; [2]): below the threshold | pKd (HTRA4, P83105; [2]): below the threshold | pKd (Inadl_1, Q8NI35; [2]): below the threshold | pKd (GIPC2, Q8TF65; [2]): below the threshold | pKd (NOS1, P29475; [2]): 3.57 | pKd (TJP3_3, O95049; [2]): below the threshold | pKd (MAGI2_4, Q86UL8; [2]): below the threshold | pKd (HTRA3, P83110; [2]): 4.2 | pKd (TIAM2, Q8IVF5; [2]): 4.11 | pKd (APBA1_1, Q02410; [2]): below the threshold | pKd (GRIP1_4, Q9Y3R0; [2]): below the threshold | pKd (GRIP1_5, Q9Y3R0; [2]): below the threshold | pKd (DLG4_3, P78352; [2]): below the threshold | pKd (Inadl_4, Q8NI35; [2]): below the threshold | pKd (MPDZ_10, O75970; [2]): below the threshold | pKd (SCRIB_2, Q14160; [2]): below the threshold | pKd (HTRA1, Q92743; [2]): 4.84 | pKd (NHERF4_1, Q86UT5-2; [2]): below the threshold | pKd (DFNB31_2, Q9P202; [2]): below the threshold | pKd (PDZRN3_1, Q9UPQ7; [2]): below the threshold | pKd (FRMPD1, Q5SYB0; [2]): below the threshold | pKd (Inadl_2, Q8NI35; [2]): 4.55 | pKd (GOPC, Q9HD26; [2]): below the threshold
Binder: KKNKDKEYYV [NRXN1, Q9ULB1]

Reference: article PMC9482650, “Quantitative fragmentomics allow affinity mapping of interactomes” (Nature Communications, 2022)
